The source of these data is patent US10464978B2, “Peptides and combination of peptides for use in immunotherapy against ovarian cancer and other cancers” (immatics biotechnologies GmbH, priority 2015, dated 2019).

In this test the target is HLA-A*02:01 (Homo sapiens, UniProt P04439, D140Y/D185E/D98H/E176V/E277Q/G131W/G231S/I119V/I121R/I166T/I218V/L300P/L318F/N151K/N90K/P208A/P217A/Q86G/Q94H/R138H/R169H/T345S). Description: MHC binding assay: UV-ligand exchange with beta2m ELISA (peptide exchange yield). The settings on record: binding to HLA-A*02:01. Put shortly: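 Values give exchange yield, measured by β2m ELISA: 100-fold-diluted monomers bound to streptavidin plates (1h, 37° C), probed with HRP anti-β2m at 2 ug/ml and read at 450 nm after TMB. Monomers came from UV-triggered cleavage of a photolabile peptide and exchange for the test peptide.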
(An ELISA detects its analyte on a solid surface through an enzyme-linked reagent.)
For “44 (ILDPISSGFLL; listed as Homo sapiens) [compound 44]”, the “Peptide exchange (MHC class I binding score, peptide exchange yield)” value (“Peptide exchange” below) is listed as ““++” (≥20% = ++)”.

With “501 (LLDPNVKSIFV; listed as Homo sapiens) [compound 501]”, the “Peptide exchange” value is ““+++” (≥50 = +++)”.

In the case of “114 (SLVGEPILQNV; listed as Homo sapiens) [compound 114]”, the “Peptide exchange” value is reported as ““++” (≥20% = ++)”.

Consider “272 (ALGNTVPAV; listed as Homo sapiens) [compound 272]”, for which the “Peptide exchange” value is given as ““+++” (≥50 = +++)”.

Regarding “350 (ALLDVTHSELTV; listed as Homo sapiens) [compound 350]”, the “Peptide exchange” value was ““+++” (≥50 = +++)”.

Regarding “288 (NLINEINGV; listed as Homo sapiens) [compound 288]”, the “Peptide exchange” value is listed as ““+++” (≥50 = +++)”.

As to “1 (SLMEPPAVLLL; listed as Homo sapiens) [compound 1]”, the “Peptide exchange” value is on record as ““+++” (≥50 = +++)”.

In the case of “206 (VLQEGKLQKLAQL; listed as Homo sapiens) [compound 206]”, the “Peptide exchange” value is reported as ““+++” (≥50 = +++)”.

“137 (TLVLTLPTV; listed as Homo sapiens) [compound 137]”: the “Peptide exchange” value is given as ““++++” (≥75% = ++++)”.

As to “219 (KLSDIGITV; listed as Homo sapiens) [compound 219]”, the “Peptide exchange” value is on record as ““+++” (≥50 = +++)”.

Turning to “500 (SLMEDQVLQL; listed as Homo sapiens) [compound 500]”, the “Peptide exchange” value is recorded as ““+++” (≥50 = +++)”.

With “108 (ALFPGVALLLA; listed as Homo sapiens) [compound 108]”, the “Peptide exchange” value is reported as ““++++” (≥75% = ++++)”.

Turning to “390 (ALFMKQIYL; listed as Homo sapiens) [compound 390]”, the “Peptide exchange” value is recorded as ““+++” (≥50 = +++)”.

For “497 (GLLEKLTAI; listed as Homo sapiens) [compound 497]”, the “Peptide exchange” value is reported as ““+++” (≥50 = +++)”.

Consider “77 (ILVEADGAWVV; listed as Homo sapiens) [compound 77]”, for which the “Peptide exchange” value is given as ““++++” (≥75% = ++++)”.

“490 (FLLQHVQEL; listed as Homo sapiens) [compound 490]”: the “Peptide exchange” value is reported as ““+++” (≥50 = +++)”.

With “280 (VLPDPEVLEAV; listed as Homo sapiens) [compound 280]”, the “Peptide exchange” value is ““+++” (≥50 = +++)”.

In the case of “586 (KLKPGDLVGV; listed as Homo sapiens) [compound 586]”, the “Peptide exchange” value is listed as ““+++” (≥50 = +++)”.

In the case of “623 (YLVEDIQHI; listed as Homo sapiens) [compound 623]”, the “Peptide exchange” value was ““+++” (≥50 = +++)”.

Turning to “306 (ALVNVQIPL; listed as Homo sapiens) [compound 306]”, the “Peptide exchange” value is recorded as ““+++” (≥50 = +++)”.

For the substance “84 (VTFGEKLLGV; listed as Homo sapiens) [compound 84]”, the “Peptide exchange” value was ““++” (≥20% = ++)”.

With “110 (FLSQVDFEL; listed as Homo sapiens) [compound 110]”, the “Peptide exchange” value is ““+++” (≥50 = +++)”.

As for “579 (NLMEMVAQL; listed as Homo sapiens) [compound 579]”, the “Peptide exchange” value is listed as ““++” (≥20% = ++)”.

Consider “343 (SLLEVNEESTV; listed as Homo sapiens) [compound 343]”, for which the “Peptide exchange” value is recorded as ““+++” (≥50 = +++)”.

Consider “66 (FLDENIGGVAV; listed as Homo sapiens) [compound 66]”, for which the “Peptide exchange” value is given as ““+++” (≥50 = +++)”.

In the case of “568 (TLYDIAHTPGV; listed as Homo sapiens) [compound 568]”, the “Peptide exchange” value is listed as ““++++” (≥75% = ++++)”.

Consider “318 (GLINTGVLSV; listed as Homo sapiens) [compound 318]”, for which the “Peptide exchange” value is reported as ““++” (≥20% = ++)”.

Take “428 (KLGHTDILVGV; listed as Homo sapiens) [compound 428]”: the “Peptide exchange” value was ““++” (≥20% = ++)”.

In the case of “530 (VMYADIGGMDI; listed as Homo sapiens) [compound 530]”, the “Peptide exchange” value is reported as ““+++” (≥50 = +++)”.

“170 (RLQETLSAA; listed as Homo sapiens) [compound 170]”: the “Peptide exchange” value was ““+++” (≥50 = +++)”.

Regarding “11 (KIFEMLEGV; listed as Homo sapiens) [compound 11]”, the “Peptide exchange” value is ““+++” (≥50 = +++)”.

As for “476 (ALMERTGYSMV; listed as Homo sapiens) [compound 476]”, the “Peptide exchange” value was ““+++” (≥50 = +++)”.

As for “316 (ILLERLWYV; listed as Homo sapiens) [compound 316]”, the “Peptide exchange” value is listed as ““+++” (≥50 = +++)”.

As to “91 (IMQDFPAEIFL; listed as Homo sapiens) [compound 91]”, the “Peptide exchange” value is ““++++” (≥75% = ++++)”.

As to “79 (SLFIGEKAVLL; listed as Homo sapiens) [compound 79]”, the “Peptide exchange” value is reported as ““+++” (≥50 = +++)”.

In the case of “407 (YLMDLINFL; listed as Homo sapiens) [compound 407]”, the “Peptide exchange” value is listed as ““+++” (≥50 = +++)”.

Take “369 (GLFPEHLIDV; listed as Homo sapiens) [compound 369]”: the “Peptide exchange” value is recorded as ““+++” (≥50 = +++)”.

Regarding “364 (LLQNEQFEL; listed as Homo sapiens) [compound 364]”, the “Peptide exchange” value is ““+++” (≥50 = +++)”.

“297 (VLADIELAQA; listed as Homo sapiens) [compound 297]”: the “Peptide exchange” value was ““+++” (≥50 = +++)”.

“508 (ILAQEQLVVGV; listed as Homo sapiens) [compound 508]”: the “Peptide exchange” value is recorded as ““+++” (≥50 = +++)”.

Regarding “526 (RLAEVGQYEQV; listed as Homo sapiens) [compound 526]”, the “Peptide exchange” value is reported as ““++” (≥20% = ++)”.

As for “74 (ALLDPEVLSIFV; listed as Homo sapiens) [compound 74]”, the “Peptide exchange” value was ““+++” (≥50 = +++)”.

“543 (GLLPTPITQQASL; listed as Homo sapiens) [compound 543]”: the “Peptide exchange” value is ““+++” (≥50 = +++)”.

Consider “541 (SMLEPVPEL; listed as Homo sapiens) [compound 541]”, for which the “Peptide exchange” value is recorded as ““+++” (≥50 = +++)”.

Take “275 (YLVYILNEL; listed as Homo sapiens) [compound 275]”: the “Peptide exchange” value is given as ““++” (≥20% = ++)”.

Regarding “332 (YLISELEAA; listed as Homo sapiens) [compound 332]”, the “Peptide exchange” value is reported as ““+++” (≥50 = +++)”.
